The values that follow come from patent US20200002383A1.

Experiment [1] addresses CH505 TF CHIM.6R.SOSIP.664V4.1 trimer (HIV-1). In words: kinetic binding assay of FIG. 69.
Experiment [2] deals with CH505 transmitted/founder (TF) gp120 Env (HIV-1). As to the kind of experiment: SPR. Background: In SPR one partner is held on a chip, and binding of the other changes the refractive index at the surface.
Experiment [3] has the same target. As to the kind of experiment: SPR, antibody captured, gp120 injected.
In experiment [4] the target is CH505 M11 gp120 (HIV-1). In words: ELISA. (In general: An ELISA detects its analyte on a solid surface through an enzyme-linked reagent.)
Experiment [5] addresses CH505 w020.14 gp120 (HIV-1). In words: ELISA.
The target in experiment [6] is CH505 transmitted/founder (TF) gp120 Env (HIV-1). In words: ELISA.
For experiment [7], the target named is CH505 w100.B6 gp120 (HIV-1). As to the kind of experiment: ELISA.
The target in experiment [8] is CH505 w053.31 gp120 (HIV-1). As to the kind of experiment: ELISA.
For experiment [9], the target named is CH505 w030.28 gp120 (HIV-1). In words: ELISA.
Experiment [10] deals with CH505 w078.15 gp120 (HIV-1). As to the kind of experiment: ELISA.
The target of experiment [11] is CH505 w078.33 gp120 (HIV-1). In words: ELISA.
Experiment [12] concerns the target CH505 M5 gp120 (HIV-1). As to the kind of experiment: ELISA.
Experiment [13] addresses CH505 w030.21 gp120 (HIV-1). In words: ELISA.
For experiment [14], the target named is CH505 w053.16 gp120 (HIV-1). As to the kind of experiment: ELISA.
The target of experiment [15] is BG505 SOSIP.664 gp140 trimer (HIV-1). As to the kind of experiment: negative-stain EM.
Experiment [16] deals with CH505 TF loop D mutant M8 Env on virus (HIV-1).
For experiment [17], the target named is CH505 TF loop D mutant M9 Env on virus (HIV-1).
For experiment [18], the target named is CH505 TF loop D mutant M7 Env on virus (HIV-1).
Experiment [19] has as its target CH505 TF loop D mutant M20 Env on virus (HIV-1).

In experiment [1], CH103 UCA (antibody) displayed a fold change of the off-rate against CH505 TF gp120 of 10 fold. Moreover, the values for the dissociation constant Kd in experiment [2] and in experiment [3] were 200 nM and 227 nM, respectively. The on-rate constant (kon) in experiment [3] amounted to 37000 M⁻¹ s⁻¹. Also, the log AUC in [4] was found to be 2.6 log AUC; in [5], 0.3 log AUC; in [6], 3.5 log AUC.
With CH103 lineage IA1 (antibody), the log AUC in experiment [7] was determined as 12.2 log AUC; in experiment [8], 13.4 log AUC; in experiment [4], 12.2 log AUC; in experiment [9], 10.1 log AUC; in experiment [10], 10.9 log AUC; in [11], 8.2 log AUC. Also, the log AUC in experiment [5] was 10.3 log AUC; in [12], 7 log AUC; in experiment [13] it was 11.8 log AUC; in experiment [6], 10.4 log AUC; in experiment [14], 8.8 log AUC.
Take CH103 lineage IA2 (antibody): the log AUC in [7] amounted to 12.1 log AUC; in [8] it was 13.3 log AUC; in experiment [4], 12.7 log AUC; in experiment [9], 11.1 log AUC; in experiment [10] it was 11.5 log AUC; in experiment [11], 9 log AUC. Besides, the log AUC was determined as 11 log AUC in experiment [5]; 7.8 log AUC in experiment [12]; 11.5 log AUC in experiment [13]; 10.8 log AUC in experiment [6]; 9.3 log AUC in experiment [14].
CH103 lineage IA3 (antibody): the log AUC in experiment [4] was 11.8 log AUC; in [9], 7.7 log AUC; in experiment [10], 3 log AUC; in experiment [5] it was 9.5 log AUC; in [12], 6.8 log AUC; in [6], 11 log AUC. Also, the log AUC in experiment [14] amounted to 1.1 log AUC.
As for “CH103 lineage IA4 (from UniProt P27701) (antibody)”, the log AUC in experiment [4] turned out to be 10.5 log AUC; in [9], 6.5 log AUC; in experiment [10] it was 1.3 log AUC; in [5], 8.6 log AUC; in [12] it was 3.8 log AUC; in experiment [6], 10.1 log AUC. Also, the log AUC in [14] was 0.2 log AUC.
In the case of CH103 lineage IA6 (antibody), the log AUC worked out at 10 log AUC in experiment [4]; 6.3 log AUC in experiment [9]; 1 log AUC in experiment [10]; 7.9 log AUC in [5]; 3.3 log AUC in [12]; 9.1 log AUC in experiment [6].
In the case of CH103 lineage IA7 (antibody), the log AUC in experiment [4] came out at 10.1 log AUC; in experiment [9] it was 3.5 log AUC; in experiment [10] it was 0.7 log AUC; in [5] it was 7.2 log AUC; in experiment [12] it was 2.3 log AUC; in experiment [6], 9.2 log AUC.
For the substance CH103 lineage IA8 (antibody), the log AUC in experiment [4] came to 6.2 log AUC; in experiment [9], 1.6 log AUC; in experiment [5], 3.4 log AUC; in experiment [12], 0.6 log AUC; in experiment [6] it was 5.5 log AUC.
Turning to CH235 Fab, the stoichiometry (Fabs per trimer) (Fab per trimer) in [15] was found to be 1.
CH235 UCA (antibody) came in with a log AUC in [12] of 0.2 log AUC.
As to CH235 lineage I1 (antibody), the log AUC was 2.8 log AUC in experiment [4], 2.4 log AUC in experiment [9], 6.5 log AUC in experiment [5] and 9.2 log AUC in experiment [12].
With CH235 lineage I2 (antibody), the values for the log AUC in experiment [5] and in experiment [12] were 1.2 log AUC and 6.9 log AUC, respectively.
Taken in the same sequence, the figures for CH235 lineage I3 (antibody) were 2.7 log AUC and 7 log AUC.
CH235 lineage IA4 (antibody) showed a log AUC in [12] of 1.4 log AUC.
CH235.9 (antibody) yielded an IC50 in [16] of 0.66 µg/mL.
Regarding CH235.9 N30T (antibody), the half-inhibitory concentration (IC50) was 24.3 µg/mL in experiment [16], more than 44 µg/mL in [17], more than 44 µg/mL in experiment [18] and more than 44 µg/mL in experiment [19].

The term Kd denotes the constant that tells how readily two partners part at equilibrium. A high value points to a looser complex. By kon is commonly meant the second-order rate constant of association. By IC50 is commonly meant the concentration needed to halve the response being measured.
